Results on 4 molecules are retold here after paper PMC4125734 (Molecular & Cellular Proteomics : MCP, 2014).

Data set [1] addresses 14-3-3γ (UniProt P61981). The data set can be described thus: native MS.
Data set [2] concerns the target 14-3-3γ (UniProt P61981). Put plainly: SPR. (In general: SPR reads the build-up and loss of mass on a sensor chip optically.)
Data set [3] addresses 14-3-3γ (UniProt P61981). Put plainly: negative-stain electron microscopy.
The target of data set [4] is 14-3-3γ (UniProt P61981). The data set can be described thus: negative-stain electron microscopy. This is another data set of the same source.
In data set [5] the target is 14-3-3γ (UniProt P61981). The data set can be described thus: native MS. The source holds these as a separate data set.
Data set [6] addresses 14-3-3γ (UniProt P61981). Put plainly: native MS. This is another data set of the same source.
Data set [7] deals with GST-14-3-3γ (UniProt P61981). The data set can be described thus: SPR.
Data set [8] concerns the target GST-14-3-3γ (UniProt P61981). Put plainly: SPR. This is another data set of the same source.
Data set [9] addresses GST-14-3-3γ (UniProt P61981). The data set can be described thus: SPR. The source holds these as a separate data set.
The data set “native MS” deals with the molecule itself. Put plainly: native MS.

Values joined by “and” are separate entries in the source; they are usually repeats but may differ in a detail not shown here. Equal entries are not always repeated. Where two headings read alike, the source gives them in different places.

With “human tyrosine hydroxylase isoform 1 phosphorylated on Ser19 (TH-pS19), full stoichiometry (from UniProt P07101-3 1-497) (enzyme)”, the stoichiometry N (14-3-3γ dimers per TH tetramer) in the data set with 14-3-3γ [1] amounted to 2; with 14-3-3γ [3] it was 1; with 14-3-3γ [4], 2; with 14-3-3γ [5] it was 2; with 14-3-3γ [6], 1. The dissociation rate constant of the smaller, rapidly dissociating population with 14-3-3γ [2] is 0.018 s⁻¹. Besides, in the data set with 14-3-3γ [2], the kon (as a rule, the second-order rate constant of association) came out at 144000 M⁻¹ s⁻¹.

Take “human tyrosine hydroxylase isoform 1 phosphorylated on Ser19 to low stoichiometry (TH-pS19L) (from UniProt P07101-3 1-497) (enzyme)”: the stoichiometry N (14-3-3γ dimers per TH tetramer) in the data set with 14-3-3γ [1] is 1 and 2. The molecule further registered an on-rate constant (kon) with GST-14-3-3γ [7] of 1.8e+06 M⁻¹ s⁻¹. Moreover, in the data set with GST-14-3-3γ [8], the koff (in general, the first-order rate constant of dissociation) was in the range of 0.00063 to 0.00069 s⁻¹ and the on-rate constant (kon) was 2.4e+06 M⁻¹ s⁻¹. In addition, in the data set with 14-3-3γ [2], the Kd (usually the concentration at which binding is half-saturated) came out at 0.57 nM; the dissociation rate constant of the smaller, rapidly dissociating population amounted to 0.019 s⁻¹; the off-rate constant (koff) was 0.00045 to 0.00051 s⁻¹; the kon was determined as 780000 M⁻¹ s⁻¹. The molecule also returned an on-rate (kon) in the data set with GST-14-3-3γ [9] of 1.2e+06 M⁻¹ s⁻¹.

In turn, “human tyrosine hydroxylase isoform 1 phosphorylated on both Ser19 and Ser40 (TH-pS19pS40) (from UniProt P07101-3 1-497) (enzyme)” gave a stoichiometry N (14-3-3γ dimers per TH tetramer) with 14-3-3γ [1] of 2. In the data set with 14-3-3γ [2], this molecule returned a Kd of 2.1 nM; a dissociation rate constant of the smaller, rapidly dissociating population of 0.018 s⁻¹; an off-rate constant (koff) of 0.00036 s⁻¹; an on-rate constant (kon) of 159000 M⁻¹ s⁻¹.

B1: 14-3-3γ (natural protein)
chain: VDREQLVQKARLAEQAERYDDMAAAMKNVTELNEPLSNEERNLLSVAYKNVVGARRSSWRVISSIEQKTSADGNEKKIEMVRAYREKIEKELEAVCQDVLSLLDNYLIKNCSETQYESKVFYLKMKGDYYRYLAEVATGEKRATVVESSEKAYSEAHEISKEHMQPTHPIRLGLALNYSVFYYEIQNAPEQACHLAKTAFDDAIAELDTLNEDSYKDSTLIMQLLRDNLTLWTSDQQDDDGGEGNN
Turning to B1, in the data set “native MS”, the stoichiometry N (usually the number of molecules, sites or subunits per partner or assembly) turned out to be 2.
